We go through six molecules from patent publication CN113912709A (SHENZHEN NATIONAL CLINICAL RES CENTER FOR INFECTIOUS …, dated 2022).

Changes are numbered by the printed parent chain.

Assay in all cases: SPR, Biacore 8K, RBD on CM5 chip, IgG injected, 1:1 model
Assay [1] addresses T1, SARS-CoV-2 Kappa variant RBD protein (L452R and E484Q) (SARS-CoV-2, UniProt P0DTC2 319-541).
T1 construct: domain: RBD; also called L452R和E484Q

The target in assay [2] is T2, SARS-CoV-2 Delta variant RBD protein (L452R and T478K) (SARS-CoV-2, UniProt P0DTC2 319-541).
T2 construct: domain: RBD; also called L452R和T478K

For assay [3], the target named is T3, SARS-CoV-2 RBD protein T478K mutant (SARS-CoV-2, UniProt P0DTC2 319-541).
T3 construct: domain: RBD

Assay [4] concerns the target T4, SARS-CoV-2 RBD protein E484Q mutant (SARS-CoV-2, UniProt P0DTC2 319-541).
T4 construct: domain: RBD

B1: VacW-105 (antibody, V domains shown)
VH: QVQLVQSGAEVKKPGSSVKVSCKASGGTFRSYTISWVRQAPGQGLEWMGRILPILGIANYAQKFQGRVTITADKSTSTAYMELSSLRSEDTAVYYCARVTGAPVESAAWFDPWGQGTLVTVSS
VL: not shown
With B1, the Kd in assay [1] is 4.13 nM; in assay [2], 5.1 nM; in assay [3] it was 3.37 nM; in assay [4], 5.22 nM.

B2: VacW-209 (antibody, V domains shown)
VH: QVQLVESGGGVVQPGRSLRLSCAASGFTFSSIAMHWVRQAPGKGLEWVAVMSFDGSIKYYGDSVKGRFTISRDNSKSTLYLQMNSLRAEDTAVYYCARGVQGYYDRSGYYNLDYNYGMDVWGQGTTVTVSS
VL: QSVLTQPPSVSGAPGQRVTISCTGSSSNIGAGYDVHWYQQLPGTAPKLLIYGNSNRPSGVPDRFSGSKSGTSASLAITGLQAEDEADYYCQSYDSSLSGWVFGGGTKLTVL
On to B2, for which the Kd in assay [1] was found to be 0.0234 nM; in assay [2] it was 0.0467 nM; in assay [3] it was 0.023 nM; in assay [4], 0.033 nM.

B3: VacW-138 (antibody, V domains shown)
VH: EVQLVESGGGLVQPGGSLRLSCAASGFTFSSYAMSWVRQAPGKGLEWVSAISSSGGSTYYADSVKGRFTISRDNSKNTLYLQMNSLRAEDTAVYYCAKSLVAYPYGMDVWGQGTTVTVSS
VL: AIQLTQSPFSLSASVGDRVTITCRASQGISSALAWYQQKPGKAPKLLIYDASSLESGVPSRFSGSGSGTDFTLTISSLQPEDFATYFCQQVDTYQFTFGPGTKVDIK
With B3, the Kd in assay [1] worked out at 3.17 nM; in assay [2], 3.11 nM; in assay [3], 1.75 nM; in assay [4] it was 3.12 nM.

B4: VacW-201 (antibody, V domains shown)
VH: EVQLVESGGGLVQPGGSLRLSCAASGFTFSSYWMNWVRQAPGKGLEWVANIKQDGSEKYYVDSVKGRFTISRDNAKNSLYLQMNSLRAEDTAVYYCARMEYPYGGVDYWGQGTLVTVSS
VL: NFMLTQPHSVSESPGKTVTISCTGSSGSIASNYVQWYQQRPGSAPTTVIYEDNQRPSGVPDRFSGSIDSSSNSASLTISGLKTEDEADYYCQSYDSSNRNWVFGGGTKLTVL
On to B4, for which the equilibrium dissociation constant (Kd) is 1.71 nM in assay [1], 2.14 nM in assay [2], 1.64 nM in assay [3] and 2.25 nM in assay [4].

B5: VacW-215 (antibody, V domains shown)
VH: EVQLVESGGGLIQPGGSLRLSCAASGFTVSSNYMSWVRQAPGKGLEWVSVIYSGGSTYYADSVKGRFTISRDNSKNTLYLQMNSLRAEDTAVYYCARSTWLRGGFDYWGQGTLVTVSS
VL: B4 VL with R99H, N100F, W101Y, G105T, L109V
Turning to B5, the Kd worked out at 0.676 nM in assay [1], 1.02 nM in assay [2], 0.683 nM in assay [3] and 0.967 nM in assay [4].

B6: VacW-212 (antibody, V domains shown)
VH: B4 VH with G55E, Y80F, A88V, V106I, S119A
VL: B4 VL
Regarding B6, the Kd in assay [1] is 1.32 nM; in assay [2], 1.83 nM; in assay [3], 1.22 nM; in assay [4], 1.74 nM.

In general, Kd refers to a measure of binding affinity in units of concentration. A high value points to lower affinity.
